Experimental data taken from patent US7588931B2, “High arachidonic acid producing strains of Yarrowia lipolytica” (E. I. du Pont de Nemours and Company, priority 2004, dated 2009).

Tested on: Yarrowia lipolytica strain ATCC #76982(Leu-)
Assay: EDA substrate feeding of Y. lipolytica expressing codon-optimized Δ8 desaturase genes
Assay type: cell-based
Details: MM containing 10 μg of EDA substrate, about 24 hr at 30° C.
Procedure: Yarrowia lipolytica strain ATCC #76982(Leu-) was transformed with pDMW240 (FIG. 8D) and pDMW255, respectively, as described in the General Methods. Yeast containing the recombinant constructs were grown in MM supplemented with EDA [20:2(11,14)]. Specifically, single colonies of transformant Y. lipolytica containing either pDMW240 (containing D8S-1) or pDMW255 (containing D8S-2) were grown in 3 mL MM at 30° C. to an OD600˜1.0. For substrate feeding, 100 μl of cells were then subcultured in 3 mL MM containing 10 μg of EDA substrate for about 24 hr at 30° C. The cells were collected by centrifugation, lipids were extracted, and fatty acid methyl esters were prepared by trans-esterification, and subsequently analyzed with a Hewlett-Packard 6890 GC.
A three amino acid difference between the protein sequence of the Δ8 desaturase deposited in GenBank (Accession No. AAD45877 [SEQ ID NO:43]) and in WO 00/34439 or Wallis et al. (Archives of Biochem. Biophys, 365:307-316 (1999)) (SEQ ID NO:252 herein) was found. Specifically, three amino acids appeared to be missing in GenBank Accession No. […]. […]

B1: D8S-3: synthetic Δ8 desaturase gene in pDMW261, SEQ ID NO:255 (protein)
chain: MKSKRQALSPLQLMEQTYDVSAWVNFHPGGAEIIENYQGRDATDAFMVMHFQEAFDKLKRMPKINPSFELPPQAAVNEAQEDFRKLREELIATGMFDASPLWYSYKISTTLGLGVLGYFLMVQYQMYFIGAVLLGMHYQQMGWLSHDICHHQTFKNRNWNNLVGLVFGNGLQGFSVTCWKDRHNAHHSATNVQGHDPDIDNLPPLAWSEDDVTRASPISRKLIQFQQYYFLVICILLRFIWCFQCVLTVRSLKDRDNQFYRSQYKKEAIGLALHWTLKALFHLFFMPSILTSLLVFFVSELVGGFGIAIVVFMNHYPLEKIGDPVWDGHGFSVGQIHETMNIRRGIITDWFFGGLNYQIEHHLWPTLPRHNLTAVSYQVEQLCQKHNLPYRNPLPHEGLVILLRYLAVFARMAEKQPAGKAL
modifications: D8S-3: synthetic delta 8-desaturase gene codon-optimized for Yarrowia lipolytica in pDMW261
For B1, the “desaturation of EDA to DGLA” value was “No desaturation of EDA to DGLA was observed”.
